Measured values: the DeepSol protein solubility set

assay: soluble on expression in E. coli; label from the status in PepcDB or PDB records

Sequence | soluble on expression in E. coli
MKSTDNSKPVPFFRGKLKFFQPKEHKISVDLVLFLSKIKPPKRNYRIIDLGAGFGFLSITLAKKYGVKVVAFEYDERMVKLLRKNVKLNGVEHLVEVVEGDIKEIEKHLSRGSFNLVVSNPPFYPINYSPNPEPYHFEVYATLKDFVRASSYLLKDGGELYLLSPCFRLYELTEYLSNFNLPLRKLSLIYPTPLKRARLAITVSVKNVKGQLECDKPLIINKENGEYTEEVKQLLENFL | soluble
MSAAVQKRASTNTVAATTYFKPAPSEIAWGKMRFLITDRPNNSSIQSYIEELEKHGARAVVRVCEPTYDTLALKEAGIDVLDWQFSDGSPPPPEVIKSWFQLCMTSFKEHPDKSIAVHCVAGLGRAPVLVAIALIEAGMKYEDAVEMIRTQRRGALNQKQLKFLETYKANGELRRLRGNVDGKQKSCCIQ | not soluble
MGSDKIHHHHHHMCQRAIANIDISKEYDESMGSNDVHYQSFARMADFFGRDMQAHRHDQFFQMHFLDTGQIELQLDDHRYSVQAPLFVLTPPSVPHAFITESDSDGHVLTVREELVWPLLEVLYPGTREAFGLPGICLSLADKPNELAALKHYWQLIERESTEQLAGCEHTLVLLAQAVFTLLLRNAKLDDHAATGMRGELKLFQRFTLLIDNHFHQHWTVPDYACELHITESRLTDICRRFANRPPKRLIFDRQLREAKRLLLFSDNAVNEIAWQLGFKDPAYFARFFNRLAGCSPSQFRQREVPSFLN | not soluble
MSLEMGMNWTHTPLALSALMFAMAAQATPNQATDAVAPEQATGFEHKSLVKAKNWMVTAANPLASEAGASILRQGGNAIDAMVTTQLMLGLVEPQSSGIGGGSFLVYWDAKKKALTTFDGRETAPLNATPELFLDSTGQPMKFYDAVVGGRSVGTPGTVKLLWETHRQYGKLEWARLIEPVAKLAEQGFEVSPRLAALIAEDKERLGRFPATKAYFFDAQGEPLTAGTLLKNPDYAATLRAIAQQGASAFYQGDIAKDIIATVQNAPGNPGVLAQQDFDTYQVKQRAPVCAAYQSYQVCGMGLPSSGGLTVGQILALTEQYDLKGWGAQDVKSWQVLGDASQLAFADRGLYMADQDYVPVPTQGLLDKTYLAERAKLIQPGKALTSAPAGNPPWHHAQLRSPDQSIELPSTSHFNIVDREGNVVSFTTSIENAFGSRLLVRGFLLNNELTDFSFATQSEGRPIANRLEPGKRPRSSMAPTIVLQDNQPYLAIGSPGGSRIIGYVAQAIVAHTQWGMNIQAAINQPHVLNRFGEIELEQGTSAEQFKPALESLGAKVGIKELNSGLHAIRITAQGLEGAADPRREGVAIGEGHHHHHH | not soluble
MDLTKLTFESVFGGSDVPMKPSRSEDNKTPRNRTDLEMFLKKTPLMVLEEAAKAVYQKTPTWGTVELPEGFEMTLILNEITVKGQATSKKAARQKAAVEYLRKVVEKGKHEIFFIPGTTKEEALSNIDQISDKAEELKRSTSDAVQDNDNDDSIPTSAEFPPGISPTENWVGKLQEKSQKSKLQAPIYEDSKNERTERFLVICTMCNQKTRGIRSKKKDAKNLAAWLMWKALEDGIESLESYDMVDVIENLEEAEHLLEIQDQASKIKDKHSALIDILSDKKRFSDYSMDFNVLSVSTMGIHQVLLEISFRRLVSPDPDDLEMGAEHTQTEEIMKATAEKEKLRKKNMPDSGPLVFAGHGSSAEEAKQCACKSAIIHFNTYDFTD | not soluble
MRRNISIPASDSESALPGSPQGSDAHVSWWCGCGVIVGMSVSLLRGRTVRRALSVLVVAGLLGAGVTGCSNDAGAKTENTIDASPTPTNTTTDGDGDSTEEPVENTPAEPEQRPTPVEPEAMKTGDKAGAIAAAQFFVEVFDYDARTSSTTLMDKYAYKKCTLCNEMRSDKQRLIDEGEISFWAEYSEAEYINSTFVGDEEIIWEVDTETSYLEHVRSLTSNEITSTRTDLILTMQIGWLGDRWELVSLGYSKK | not soluble
SADDKDVLRDVWFGRIPACFTLSPDETTEREAEPYYLLLPRVSYLTLVTDKVKKHFLKVMKAEDVEEMWFEHEGTPLKWHYPIGVLFDLHASNSALPWNVTVHFKNFPEQDLLHCSTNSVIEAHFMSCIKEADALKHKGQVINDMQKKDHKQLWMGLQNDKFDQFWAMNRKLMEYPTEEGGFRYIPFRIYQTMSDRPFIQTLFRPVSSEGQALTLGDLLKELFPAAIEDEPKKFQVMIHGIEPLLETPIQWLSEHLSHPDNFLHISIIPAPSD | soluble
MEEPEEPADSGQSLVPVYIYSPEYVSMCDSLAKIPKRASMVHSLIEAYALHKQMRIVKPKVASMEEMATFHTDAYLQHLQKVSQEGDDDHPDSIEYGLGYDCPATEGIFDYAAAIGGATITAAQCLIDGMCKVAINWSGGWHHAKKDEASGFCYLNDAVLGILRLRRKFERILYVDLDLHHGDGVEDAFSFTSKVMTVSLHKFSPGFFPGTGDVSDVGLGKGRYYSVNVPIQDGIQDEKYYQICESVLKEVYQAFNPKAVVLQLGADTIAGDPMCSFNMTPVGIGKCLKYILQWQLATLILGGGGYNLANTARCWTYLTGVILGKTLSSEIPDHEFFTAYGPDYVLEITPSCRPDRNEPHRIQQILNYIKGNLKHVVIEGRGSHHHHHH | soluble
SMRYTVSNLSMQTHAARFKTFFNWPSSVLVNPEQLASAGFYYVGNSDDVKCFCCDGGLRCWESGDDPWVQHAKWFPRCEYLIRIKGQEFIRQVQAS | soluble
MSVLQKIADIEAEMARTQKNKATNAHLGILKAKLAKLRRDLITPKGGGGGPGEGFDVAKTGDARIGFVGFPSVGKSTLLCNLAGVFSEVAAYEFTTLTTVPGVIRYKGAKIQLLDLPGIIEGAKDGKGRGKQVIAVARTCSLILMVLDVMKPLQHKKLLEYELEGFGIRLNKQPPNIGYKRKEKGGINLTMLVPQSELDLDLVKSILAEYRIHNADITLRYDATSEDLIDVIEGNRIYIPCIYVLNKIDQISIEELDIIYRIPHTVPISAHHKWNFDDLLEKVWEYLNLIRIYTKPKGQLPDYSQPIVLNAERKSIEDLCTKIHKSLQKDFKCALVWGASAKHNPQRVGRDHVLIDEDVVQVIKKV | not soluble
MSDALVWQVIRNNSAFLRTQRGIGKRFSTEKFNLKKVNSPKYSGLANKHAIDVSAAAKGVVVSTKNEKGRPAKAVTTSTLSKTPVASVRRLAKNAGFNKFNKLAQRRAAAIVRSQVKKAKVQKTDA | not soluble
MISNIFKISAALLLLTIVSEAKPCFGRCGGRPPPPCGLPPFLEDLPSDVQTKITEIWKDYKEGDKCYEEQGLTREIMESLPKDVRKSIHKRPPLPFLRGLPKDILAKFDAIFKDKSIPFSEKPEKIDALAQEVLTGDNLKKFQEFKEKKEKEMQEYKDKESKLSAAAKVANEKLEALGKQKFAILEELDENVKDELFDLWKSRPHGPPRHH | not soluble
MGSDKIHHHHHHMPAISVQDVSKRFRVFAKPADRLKAAVRHRIGGLAKLVPARLLGTEGASEFHALQHVSFHVQKGETIGIIGRNGSGKSTLLQIICGTLTPSGGRVAINGRVAALLELGAGFNPEFTGRENVYMNAALLGLSKAQIEERLDAIFAFADIGGFVDQPVKTYSSGMYVRLAFAVIAHVDADVLVIDEALAVGDAFFTQKCMRFLRAFMERGTVLFVSHDTNAVVNLCTRVVWLDKGRVREIGPAKDVCDSYLEAFYEEQHCASGRSVRALERSSVVRAIAEGDMRDQRALLINASKLRNDVELFQFTADAKNFGLGGASIEHVGIEDGTGAPLNWVVGGEIVCIRIAVKALQNLERAIVGFIVRDRLGQNLFGDNTYLTTLNEPFAVAAGESFSVRFGFRMPVLPVGDYSVTVAVADGSQSDHVIHQWLHDAVLLKSHSTSVSTGLIGIPMHEIVLERDTLNEVGAAQ | not soluble
MSYQFTELKEELIIKKIVSLHYFEYMSDFTFPGESHNFWEFLYVDKGELQVTADREKFILRQGQIIFHRPNEFHALAANNVIAPNLVVISFEAGEPCMAFFEHKILTVGESERNLLSQIIAEARETFDGPMDDPYMEVLSRRESIPFGAEQMIKIHLEQFLIQLFRNFSGTLAFGENHKLNGAHAPGKSPALADGNELFSDILDYLDRNIGKSLTVEKICRDNLIGVSQLKKLFRTYQGSGVMECFNQMKINAAKQMIRNQQMNFTQIADALGYTSVHYFSRQFKKLTDMTPTEYRASIMLRAKRPQRKHL | not soluble
SSPTMTSSLRLRTLILGKQRWIKPRNFYQFCDKYAIGYENKKNNSLRNHKILRFNDGSVANYRIYEFEIYNFNSDSWKVFDFTPDWDISFTDLSVSLKGYTYWLIRSNGLIQEYYARSLRKMMIKNY | soluble
